Paper PMC8169993

Key:
[1] = biological target: T1, RPA (heterotrimer RPA1/RPA2/RPA3) (Homo sapiens, UniProt P27694;P15927;P35244 1-616;1-270;1-121); assay: fluorescence polarization
[2] = biological target: T1, RPA (heterotrimer RPA1/RPA2/RPA3); assay: smFRET
[3] = biological target: T1, RPA (heterotrimer RPA1/RPA2/RPA3); assay: gel filtration
[4] = biological target: T1, RPA (heterotrimer RPA1/RPA2/RPA3); assay: smFRET; remark: listed apart in the source
[5] = biological target: T1, RPA (heterotrimer RPA1/RPA2/RPA3); assay: smFRET; remark: listed apart in the source

T1 sequence (P27694 whole entry, chain 1 of 3): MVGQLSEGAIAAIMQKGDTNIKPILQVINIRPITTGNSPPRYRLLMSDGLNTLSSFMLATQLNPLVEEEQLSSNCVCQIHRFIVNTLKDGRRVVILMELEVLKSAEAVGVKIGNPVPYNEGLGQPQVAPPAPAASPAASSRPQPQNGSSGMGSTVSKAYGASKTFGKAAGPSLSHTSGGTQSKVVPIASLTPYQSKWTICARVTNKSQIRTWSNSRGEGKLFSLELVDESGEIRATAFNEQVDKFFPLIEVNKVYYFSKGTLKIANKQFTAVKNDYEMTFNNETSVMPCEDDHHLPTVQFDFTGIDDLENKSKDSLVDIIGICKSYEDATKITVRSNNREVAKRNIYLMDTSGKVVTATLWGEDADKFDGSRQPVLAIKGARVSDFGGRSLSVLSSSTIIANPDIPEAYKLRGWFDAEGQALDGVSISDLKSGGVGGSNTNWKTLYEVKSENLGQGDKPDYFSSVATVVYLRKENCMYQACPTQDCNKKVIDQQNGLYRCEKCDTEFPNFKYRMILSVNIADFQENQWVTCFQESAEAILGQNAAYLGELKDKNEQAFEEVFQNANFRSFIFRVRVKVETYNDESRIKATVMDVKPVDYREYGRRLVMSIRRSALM
T1 sequence (P15927 whole entry, chain 2 of 3): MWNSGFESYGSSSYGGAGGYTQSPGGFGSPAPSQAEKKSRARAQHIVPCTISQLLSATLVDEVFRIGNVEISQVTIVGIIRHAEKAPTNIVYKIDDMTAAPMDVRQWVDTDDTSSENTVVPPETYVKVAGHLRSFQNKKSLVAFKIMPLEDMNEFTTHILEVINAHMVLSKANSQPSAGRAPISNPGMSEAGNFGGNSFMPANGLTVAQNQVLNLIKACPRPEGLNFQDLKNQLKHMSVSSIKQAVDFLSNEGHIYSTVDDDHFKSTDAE
T1 sequence (P35244 whole entry, chain 3 of 3): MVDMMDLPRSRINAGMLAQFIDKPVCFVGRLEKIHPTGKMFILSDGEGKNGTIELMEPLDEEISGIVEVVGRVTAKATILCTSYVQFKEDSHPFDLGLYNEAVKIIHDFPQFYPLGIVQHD

B1: 3G4L1 (FP substrate) (mixed)
DNA 1: GCGTGGCACCGGTAATAGGAAATAGGAGATTGGGTGGGTGGGTGGGTT
DNA 2: TCCTATTTCCTATTACCGGTGCCACGC
B1 showed a Kd [1] of 8.6 nM.

B2: 3G4L5 (mixed)
DNA 1: GCGTGGCACCGGTAATAGGAAATAGGAGATTGGGTTTTTGGGTTTTTGGGTTTTTGGGTT
DNA 2: TCCTATTTCCTATTACCGGTGCCACGC
B2: binds [2].

B3: 3G4L3 (FP substrate) (mixed)
DNA 1: GCGTGGCACCGGTAATAGGAAATAGGAGATTGGGTTAGGGTTAGGGTTAGGGTT
DNA 2: TCCTATTTCCTATTACCGGTGCCACGC
Binder B3 has a Kd [1] of 6.3 nM.

B4: 3G4L4 (mixed)
DNA 1: GCGTGGCACCGGTAATAGGAAATAGGAGATTGGGTTTTGGGTTTTGGGTTTTGGGTT
DNA 2: TCCTATTTCCTATTACCGGTGCCACGC
B4: binds [2].

B5: 4G4 (mixed)
DNA 1: GCGTGGCACCGGTAATAGGAAATAGGAGATTGGGGTGTGGGGACAGGGGTGTGGGGTT
DNA 2: TCCTATTTCCTATTACCGGTGCCACGC
B5: binds [3].

B6: 3G4L121* (mixed)
DNA 1: GGGTGGGTAGGGTGGGATGTATGACAAGGAAGG
DNA 2: CCTTCCTTGTCATAC
B6: binds [4].

B7: 27bp4nt (mixed)
DNA 1: GCGTGGCACCGGTAATAGGAAATAGGAGATT
DNA 2: TCCTATTTCCTATTACCGGTGCCACGC
B7: binds [5].
